The values below come from US8404652B2, “DNA-binding protein YB-1-containing collagen accumulation inhibitors” (Sumitomo Chemical Company, Limited, priority 2000, dated 2013).

Common to all, as to assay type: cell-based
Experiment [1] deals with promoter region of the human type-I collagen α2 strand gene (binding reporter vector). As to the kind of experiment: CAT reporter assay of test substances, binding reporter vector-transduced fibroblast. The procedure:
(§1) 2 ml of an angelica extract [ICHIMARU-PHARCOS, PHARCOLEX (trade mark of ICHIMARU-PHARCOS), angelica] and 2 ml of a basswood extract [ICHIMARU-PHARCOS, PHARCOLEX (trade mark of ICHIMARU-PHARCOS), linden] were freeze-dried and each was combined with 1 ml of dimethyl sulfoxide (hereinafter referred to as DMSO) per 50 mg of the freeze-dried material, whereby obtaining an angelica extract sample and a linden extract sample.
(§2) A normal human fetal dermal fibroblast was inoculated in a population of 1×10^6 cells in a 60-mm dish and incubated in D-MEM (+) overnight at 37° C. under 5% CO2 atmosphere, and then the culture medium was replaced with D-MEM (−). On the other hand, 100 μl of D-MEM (−) was combined with either of 2 μg of the binding reporter vector DNA or 2 μg of the non-binding reporter vector DNA obtained in Example 2 (3), and the mixture was allowed to stand at room temperature for 40 minutes (Solution 1). To 100 μl of MEM(−), 4.5 μl of Lipofectine (Gibco, Catalog No.18292-011) was added and the mixture was allowed to stand at room temperature for 40 minutes (Solution 2). Then Solution 1 and Solution 2 were mixed and allowed to stand at room temperature for 10 minutes, and then combined with 2 ml of D-MEM (−) and mixed. This mixture was added to the normal human fetal fibroblast described above, which was then incubated at 37° C. under 5% CO2 atmosphere for 6 hours. […]

For experiment [2], the system named is DNA-binding protein of invention (YB-1) fused with GFP (pCMX-YB-1-GFP). The experiment can be described thus: Fluorescent microscope examination of migration of YB-1-GFP into the nucleus. To be noted: human fibroblast transduced with pCMX-YB-1-GFP; 4 hours contact; IFN-γ 100 U/ml as positive control. The procedure: 100 ng of YB-1/RSV, 10 pmol of an oligonucleotide consisting of the nucleotide sequence represented by SEQ ID NO:.15, 10 pmol of an oligonucleotide consisting of the nucleotide sequence represented by SEQ ID NO:.16, 5 μl of the buffer included in KOD-Dash (TOYOBO, Catalog No.RR002A), 5 μl of Mg^2+ solution, 5 μl of dNTP mixture, 1 μl of KOD-Dash and distilled water were mixed to prepare 50 μl in total of a PCR solution, which was used to perform a PCR. The condition of the PCR involved an incubation at 94° C. for 2 minutes, followed by 35 cycles, each cycle involving the incubations at 94° C. for 15 seconds, 60° C. for 30 seconds and then 68° C. for 1 minute. After the PCR, the PCR solution was digested with HindIII and Pm1I and subjected to an ethanol precipitation to recover a DNA (hereinafter a DNA obtained as a residue is referred to as a YB-1DNA.). […] The nucleotide sequence of the plasmid DNA thus obtained was analyzed, and a plasmid having a nucleotide sequence in which a GFP amino acid sequence was encoded downstream of the amino acid sequence of the DNA-binding protein of the present invention with its reading flame being continued was selected. […]

Experiment [3] concerns human type-I collagen α2 strand mRNA. The experiment can be described thus: Type-I collagen α2 strand mRNA quantity (northern blotting) with test substances. As to conditions: extract 50 μg lyophilized sample per ml, INF-γ 100 U/ml. The procedure: A normal human fetal dermal fibroblast was inoculated in a population of […] in a 100-mm dish and incubated in D-MEM (+) overnight at 37° C. under 5% CO2 atmosphere. This cell was supplemented with the angelica extract sample prepared in Example 7 (2) at 50 μg lyophilized sample per ml medium and incubated further for 24 hours. In a case of negative control, the angelica extract sample was replaced with DMSO (added at 0.1% in the medium).
In a case of positive control, the angelica extract sample was replaced with INF-γ (added at 100 U/ml in the medium). The cell thus incubated was washed twice with a PBS, and used to prepare a total RNA similarly to Example 1 (1). […] The radioactivity of the air-dried filter was determined using BAStation.
On the other hand, 10 μg of the total RNA was subjected to an electrophoresis on the gel described above which contained 0.5 μg/ml of ethidium bromide (Gibco BRL, Catalog No.15582-018) and the fluorescent intensity of 28S ribosome RNA was quantified using Luminescent Image Analyzer LAS-1000 plus (FUJI FILM) and Image Gauge Ver 3.12 (FUJI FILM). The quantity of the type-I collagen α2 strand mRNA relative to the 28S ribosome RNA was calculated in accordance with the following equation. Type-I collagen α2 strand mRNA quantity=Radioactivity of band of about 5.8 kb/fluorescent intensity of 28S ribosome RNA […]

For experiment [4], the system named is non-binding reporter vector. The experiment can be described thus: CAT reporter assay of test substances, non-binding reporter vector-transduced fibroblast. As to conditions: normal human fetal dermal fibroblast; sample 1 μg freeze dried material/ml, IFN-γ 100 U/ml; 40 hours; negative control of binding reporter cell = 1.0. The procedure:
as §1, §2

As to `CC(O)C(O)/C=C/C=C\CC/C=C/C(=O)NCC(C)(C)O` (stereo not drawn) [Compound A], the “relative CAT activity” value in experiment [1] (binding reporter vector-transduced normal human fetal dermal fibroblast, 8 μM in medium, methanol negative control = 1.0) was found to be 0.7.

B1: Positive control: interferon-γ (Roche) added at 100 U/ml in the medium (protein, UniProt P01579 24-161, looked up)
Interferon gamma: QDPYVKEAENLKKYFNAGHSDVADNGTLFLGILKNWKEESDRKIMQSQIVSFYFKLFKNFKDDQSIQKSVETIKEDMNVKFFNSNKKKRDDFEKLTNYSVTDLNVQRKAIHELIQVMAELSPAAKTGKRKRSQMLFRG
As for B1, in experiment [2], the “localisation of YB-1-GFP fluorescence (cytoplasmic / intranuclear)” value is “no cytoplasmic fluorescence”. Moreover, the “Relative transcription level of type-I collagen gene (α2 strand mRNA level)” value in experiment [3] (Table 5, TGFβ column prints Absent (method: TGFβ 10 ng/ml), negative control with TGFβ = 1.0) came out at 0.5; in experiment [3] (normal human fetal dermal fibroblast, TGFβ absent, 24 hours, negative control = 1.0), 0.5. Moreover, in experiment [1] (normal human fetal dermal fibroblast, sample 1 μg freeze dried material/ml, IFN-γ 100 U/ml, 40 hours, negative control = 1.0), the “Relative CAT activity, binding reporter vector-transduced cell” value is 0.6. The “Relative CAT activity, non-binding reporter vector-transduced cell” value in experiment [4] was determined as 0.9.
